System: primer-template complex 5
Test: Steady-state kinetic analysis of dA incorporation in 5 by Pol θ variants (polymerase activity)
Assay type: biochemical
Settings: dA incorporation in 5, 25° C.
Protocol: 1.4.3. Steady-state kinetic analysis of dA incorporation in 5 by Pol θ. Polymerase reactions were conducted with Pol θ (432 pM for wild type Pol θ and 5 nM for K2383A and K2383R), 5′-^32P-5 (50 nM), and a range of dATP concentrations (0.25 μM-100 μM for wild type and 62.5-5000 μM for mutants) at 25° C. in reaction buffer (10 mM Tris HCl pH 8, 25 mM KCl, 10 mM MgCl2, 1 mM BME). The concentration range for dATP and the reaction time were selected so that reactions proceeded no further than 25% (single-hit conditions). In a typical experiment, a 2×DNApolymerase solution was prepared by mixing 5′-^32P-5 (500 nM, 18 μL), 10×reaction buffer (18 μL), 10×Pol θ (4.32 nM for wild type or 50 nM for mutants, 18 μL) in storage buffer (20 mM Tris HCl pH 7, 300 mM NaCl, 10% glycerol, 5 mM BME), and H2O (36 μL). The 2×DNAenzyme solution (3 μL) was mixed with the appropriate 2×dNTP solution (3 μL) to initiate the reaction. Reactions were incubated for 20 s for wild type Pol θ, 1.5 min for K2383R, and 4 min for K2383A, after which, they were quenched with 95% formamide loading buffer containing 25 mM EDTA (6 μL). An aliquot (4 μL) was analyzed by 20% denaturing PAGE run at 55 W for approximately 3.5 h. The gel was analyzed by phosphorimaging, and the data were fit to the Michaelis-Menten equation. The kcat was determined by dividing Vmax by the active concentration of enzyme. […]

B1: wt28: wild type Pol θ catalytic core (residues 1792-2590) (protein, UniProt O75417 1792-2590, looked up, fragment)
chain: GFKDNSPISDTSFSLQLSQDGLQLTPASSSSESLSIIDVASDQNLFQTFIKEWRCKKRFSISLACEKIRSLTSSKTATIGSRFKQASSPQEIPIRDDGFPIKGCDDTLVVGLAVCWGGRDAYYFSLQKEQKHSEISASLVPPSLDPSLTLKDRMWYLQSCLRKESDKECSVVIYDFIQSYKILLLSCGISLEQSYEDPKVACWLLDPDSQEPTLHSIVTSFLPHELPLLEGMETSQGIQSLGLNAGSEHSGRYRASVESILIFNSMNQLNSLLQKENLQDVFRKVEMPSQYCLALLELNGIGFSTAECESQKHIMQAKLDAIETQAYQLAGHSFSFTSSDDIAEVLFLELKLPPNREMKNQGSKKTLGSTRRGIDNGRKLRLGRQFSTSKDVLNKLKALHPLPGLILEWRRITNAITKVVFPLQREKCLNPFLGMERIYPVSQSHTATGRITFTEPNIQNVPRDFEIKMPTLVGESPPSQAVGKGLLPMGRGKYKKGFSVNPRCQAQMEERAADRGMPFSISMRHAFVPFPGGSILAADYSQLELRILAHLSHDRRLIQVLNTGADVFRSIAAEWKMIEPESVGDDLRQQAKQICYGIIYGMGAKSLGEQMGIKENDAACYIDSFKSRYTGINQFMTETVKNCKRDGFVQTILGRRRYLPGIKDNNPYRKAHAERQAINTIVQGSAADIVKIATVNIQKQLETFHSTFKSHGHREGMLQSDQTGLSRKRKLQGMFCPIRGGFFILQLHDELLYEVAEEDVVQVAQIVKNEMESAVKLSVKLKVKVKIGASWGELKDFDV
modifications: catalytic core
Km: 5 ± 1 µM
kcat: 1.08 ± 0.2 s⁻¹
